Assay results from patent publication US20170081400A1 (CEPHALON, published 2017).

Key:
[1] = molecular target: T1, human TL1A extracellular domain with N-terminal HIS and FLAG tag (human, UniProt O95150 72-251); assay: SPR run 2; supernatant on Protein A; TL1A 10 ug/mL; timepoint 44
T1 construct: whole entry named. ~70 kDa fraction purified by gel filtration
T1 sequence: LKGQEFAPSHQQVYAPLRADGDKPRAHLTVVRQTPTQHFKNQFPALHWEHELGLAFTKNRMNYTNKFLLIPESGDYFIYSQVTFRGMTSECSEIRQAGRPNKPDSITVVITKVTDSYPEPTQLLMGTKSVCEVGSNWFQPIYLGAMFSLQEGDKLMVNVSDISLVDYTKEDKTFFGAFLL
From the text: (§1) 1.5. Antibody expression and antigen binding as determined by SPR. Using a CM5 sensor chip (GE Healthcare) Protein A (Pierce) was coupled to the chip surface using an amine coupling kit (GE Healthcare). Protein A was coupled on flow cell 1 and 2 (or alternatively 3 and 4) using a BIACORE® T200. […] The amount of supernatant or purified protein (as well as the concentration) injected during the capture stage varied between runs and is specified in the header of the Tables 3-11. At the end of injection of the supernatant or purified antibody the change in response units was measured. This value was reported as Capture Level in Tables 3-11. […] The response units were measured prior to the end of the dissociation phase. […] The sensorgrams were double referenced (flow cell 2 is subtracted from flow cell 1 and a buffer blank). As there were a large number of antibody variants to screen, these were screened across different runs (Tables 3-11). […] A summary of the conditions used in each run is below:
(§2) 2.1. […] In some experiment the antibodies were purified using Protein A chromatography (See 1.4) and purified antibodies were used in BIACORE® (GE Healthcare) experiments.

[2] = molecular target: T1, human TL1A extracellular domain with …; assay: SPR run 2; supernatant on Protein A; TL1A 10 ug/mL; timepoint 220
From the text: as §1, §2

Binder	TL1A Binding Level (Early) [1] [RU]	TL1A Binding Level (Late) [2] [RU]
320-220 (antibody, human IgG1, name in Kabat numbering, V domains shown, human IgG1, lambda) VH: QVQLVQSGAEVKKPGASVKVSCKASGYTFTSYDINWVRQAPGQGLEWMGWLNPNSGNTGYAQKFQGRVTMTADRSTSTAYMELSSLRSEDTAVYYCAREVPETAAFEYWGQGTLVTVSS VL: QSVLTQPPSVSGAPGQRVTISCTSSHSDIGAGLGVHWYQQLPGTAPKLLIEGYYNRPSGVPDRFSGSKSGTSASLTITGLLPEDEGDYYCQSYDGTLSALFGGGTKLTVLG	253	230
320-228 (antibody, human IgG1, name in Kabat numbering, V domains shown, human IgG1, lambda) VH: QVQLVQSGAEVKKPGASVKVSCKASGYTFTSYDINWVRQAPGQGLEWMGWLNPNSGNTGYAQKFQGRVTMTADRSTSTAYMELSSLRSEDTAVYYCAREVPETAAFEYWGQGTLVTVSS VL: QSVLTQPPSVSGAPGQRVTISCTSSSHDIGAGLGVHWYQQLPGTAPKLLIEGYYNRPSGVPDRFSGSKSGTSASLTITGLLPEDEGDYYCQSYDGTLSALFGGGTKLTVLG	259	235
320-243 (antibody, human IgG1, name in Kabat numbering, V domains shown, human IgG1, lambda) VH: QVQLVQSGAEVKKPGASVKVSCKASGYTFTSYDINWVRQAPGQGLEWMGWLNPNSGNTGYAQKFQGRVTMTADRSTSTAYMELSSLRSEDTAVYYCAREVPETAAFEYWGQGTLVTVSS VL: QSVLTQPPSVSGAPGQRVTISCTSSSSDQGAGLGVHWYQQLPGTAPKLLIEGYYNRPSGVPDRFSGSKSGTSASLTITGLLPEDEGDYYCQSYDGTLSALFGGGTKLTVLG	71	26
320-224 (antibody, human IgG1, name in Kabat numbering, V domains shown, human IgG1, lambda) VH: QVQLVQSGAEVKKPGASVKVSCKASGYTFTSYDINWVRQAPGQGLEWMGWLNPNSGNTGYAQKFQGRVTMTADRSTSTAYMELSSLRSEDTAVYYCAREVPETAAFEYWGQGTLVTVSS VL: QSVLTQPPSVSGAPGQRVTISCTSSYSDIGAGLGVHWYQQLPGTAPKLLIEGYYNRPSGVPDRFSGSKSGTSASLTITGLLPEDEGDYYCQSYDGTLSALFGGGTKLTVLG	198	153
320-242 (antibody, human IgG1, name in Kabat numbering, V domains shown, human IgG1, lambda) VH: QVQLVQSGAEVKKPGASVKVSCKASGYTFTSYDINWVRQAPGQGLEWMGWLNPNSGNTGYAQKFQGRVTMTADRSTSTAYMELSSLRSEDTAVYYCAREVPETAAFEYWGQGTLVTVSS VL: QSVLTQPPSVSGAPGQRVTISCTSSSSDSGAGLGVHWYQQLPGTAPKLLIEGYYNRPSGVPDRFSGSKSGTSASLTITGLLPEDEGDYYCQSYDGTLSALFGGGTKLTVLG	124	49
320-234 (antibody, human IgG1, name in Kabat numbering, V domains shown, human IgG1, lambda) VH: QVQLVQSGAEVKKPGASVKVSCKASGYTFTSYDINWVRQAPGQGLEWMGWLNPNSGNTGYAQKFQGRVTMTADRSTSTAYMELSSLRSEDTAVYYCAREVPETAAFEYWGQGTLVTVSS VL: QSVLTQPPSVSGAPGQRVTISCTSSSSSIGAGLGVHWYQQLPGTAPKLLIEGYYNRPSGVPDRFSGSKSGTSASLTITGLLPEDEGDYYCQSYDGTLSALFGGGTKLTVLG	262	239
320-232 (antibody, human IgG1, name in Kabat numbering, V domains shown, human IgG1, lambda) VH: QVQLVQSGAEVKKPGASVKVSCKASGYTFTSYDINWVRQAPGQGLEWMGWLNPNSGNTGYAQKFQGRVTMTADRSTSTAYMELSSLRSEDTAVYYCAREVPETAAFEYWGQGTLVTVSS VL: QSVLTQPPSVSGAPGQRVTISCTSSSYDIGAGLGVHWYQQLPGTAPKLLIEGYYNRPSGVPDRFSGSKSGTSASLTITGLLPEDEGDYYCQSYDGTLSALFGGGTKLTVLG	261	235
320-225 (antibody, human IgG1, name in Kabat numbering, V domains shown, human IgG1, lambda) VH: QVQLVQSGAEVKKPGASVKVSCKASGYTFTSYDINWVRQAPGQGLEWMGWLNPNSGNTGYAQKFQGRVTMTADRSTSTAYMELSSLRSEDTAVYYCAREVPETAAFEYWGQGTLVTVSS VL: QSVLTQPPSVSGAPGQRVTISCTSSSADIGAGLGVHWYQQLPGTAPKLLIEGYYNRPSGVPDRFSGSKSGTSASLTITGLLPEDEGDYYCQSYDGTLSALFGGGTKLTVLG	267	243
320-222 (antibody, human IgG1, name in Kabat numbering, V domains shown, human IgG1, lambda) VH: QVQLVQSGAEVKKPGASVKVSCKASGYTFTSYDINWVRQAPGQGLEWMGWLNPNSGNTGYAQKFQGRVTMTADRSTSTAYMELSSLRSEDTAVYYCAREVPETAAFEYWGQGTLVTVSS VL: QSVLTQPPSVSGAPGQRVTISCTSSLSDIGAGLGVHWYQQLPGTAPKLLIEGYYNRPSGVPDRFSGSKSGTSASLTITGLLPEDEGDYYCQSYDGTLSALFGGGTKLTVLG	156	96
320-231 (antibody, human IgG1, name in Kabat numbering, V domains shown, human IgG1, lambda) VH: QVQLVQSGAEVKKPGASVKVSCKASGYTFTSYDINWVRQAPGQGLEWMGWLNPNSGNTGYAQKFQGRVTMTADRSTSTAYMELSSLRSEDTAVYYCAREVPETAAFEYWGQGTLVTVSS VL: QSVLTQPPSVSGAPGQRVTISCTSSSWDIGAGLGVHWYQQLPGTAPKLLIEGYYNRPSGVPDRFSGSKSGTSASLTITGLLPEDEGDYYCQSYDGTLSALFGGGTKLTVLG	271	243
320-230 (antibody, human IgG1, name in Kabat numbering, V domains shown, human IgG1, lambda) VH: QVQLVQSGAEVKKPGASVKVSCKASGYTFTSYDINWVRQAPGQGLEWMGWLNPNSGNTGYAQKFQGRVTMTADRSTSTAYMELSSLRSEDTAVYYCAREVPETAAFEYWGQGTLVTVSS VL: QSVLTQPPSVSGAPGQRVTISCTSSSLDIGAGLGVHWYQQLPGTAPKLLIEGYYNRPSGVPDRFSGSKSGTSASLTITGLLPEDEGDYYCQSYDGTLSALFGGGTKLTVLG	245	223
320-239 (antibody, human IgG1, name in Kabat numbering, V domains shown, human IgG1, lambda) VH: QVQLVQSGAEVKKPGASVKVSCKASGYTFTSYDINWVRQAPGQGLEWMGWLNPNSGNTGYAQKFQGRVTMTADRSTSTAYMELSSLRSEDTAVYYCAREVPETAAFEYWGQGTLVTVSS VL: QSVLTQPPSVSGAPGQRVTISCTSSSSWIGAGLGVHWYQQLPGTAPKLLIEGYYNRPSGVPDRFSGSKSGTSASLTITGLLPEDEGDYYCQSYDGTLSALFGGGTKLTVLG	212	163
320-238 (antibody, human IgG1, name in Kabat numbering, V domains shown, human IgG1, lambda) VH: QVQLVQSGAEVKKPGASVKVSCKASGYTFTSYDINWVRQAPGQGLEWMGWLNPNSGNTGYAQKFQGRVTMTADRSTSTAYMELSSLRSEDTAVYYCAREVPETAAFEYWGQGTLVTVSS VL: QSVLTQPPSVSGAPGQRVTISCTSSSSLIGAGLGVHWYQQLPGTAPKLLIEGYYNRPSGVPDRFSGSKSGTSASLTITGLLPEDEGDYYCQSYDGTLSALFGGGTKLTVLG	221	191
320-240 (antibody, human IgG1, name in Kabat numbering, V domains shown, human IgG1, lambda) VH: QVQLVQSGAEVKKPGASVKVSCKASGYTFTSYDINWVRQAPGQGLEWMGWLNPNSGNTGYAQKFQGRVTMTADRSTSTAYMELSSLRSEDTAVYYCAREVPETAAFEYWGQGTLVTVSS VL: QSVLTQPPSVSGAPGQRVTISCTSSSSYIGAGLGVHWYQQLPGTAPKLLIEGYYNRPSGVPDRFSGSKSGTSASLTITGLLPEDEGDYYCQSYDGTLSALFGGGTKLTVLG	230	196
320-223 (antibody, human IgG1, name in Kabat numbering, V domains shown, human IgG1, lambda) VH: QVQLVQSGAEVKKPGASVKVSCKASGYTFTSYDINWVRQAPGQGLEWMGWLNPNSGNTGYAQKFQGRVTMTADRSTSTAYMELSSLRSEDTAVYYCAREVPETAAFEYWGQGTLVTVSS VL: QSVLTQPPSVSGAPGQRVTISCTSSWSDIGAGLGVHWYQQLPGTAPKLLIEGYYNRPSGVPDRFSGSKSGTSASLTITGLLPEDEGDYYCQSYDGTLSALFGGGTKLTVLG	143	66
320-227 (antibody, human IgG1, name in Kabat numbering, V domains shown, human IgG1, lambda) VH: QVQLVQSGAEVKKPGASVKVSCKASGYTFTSYDINWVRQAPGQGLEWMGWLNPNSGNTGYAQKFQGRVTMTADRSTSTAYMELSSLRSEDTAVYYCAREVPETAAFEYWGQGTLVTVSS VL: QSVLTQPPSVSGAPGQRVTISCTSSSDDIGAGLGVHWYQQLPGTAPKLLIEGYYNRPSGVPDRFSGSKSGTSASLTITGLLPEDEGDYYCQSYDGTLSALFGGGTKLTVLG	242	218
320-235 (antibody, human IgG1, name in Kabat numbering, V domains shown, human IgG1, lambda) VH: QVQLVQSGAEVKKPGASVKVSCKASGYTFTSYDINWVRQAPGQGLEWMGWLNPNSGNTGYAQKFQGRVTMTADRSTSTAYMELSSLRSEDTAVYYCAREVPETAAFEYWGQGTLVTVSS VL: QSVLTQPPSVSGAPGQRVTISCTSSSSQIGAGLGVHWYQQLPGTAPKLLIEGYYNRPSGVPDRFSGSKSGTSASLTITGLLPEDEGDYYCQSYDGTLSALFGGGTKLTVLG	256	236
